Measured values as given in the supplement of paper PMC10126150.
± gives the standard deviation of the averaged measurements.

Test system: ATP
Test: switch fluorescence ratio, 500 uM ATP over buffer (Cy3 cluster intensity, sum of 5 cycles each) (fold (ratio)); higher = stronger signal-on switching upon ATP binding; sequences stand for … in TCGTCGGCAGCGTCAGATGTGTATAAGAGACAGTTTTTTTTTTTTTTTTTTTTTTTTT…TC
Details: aptamer strand: ATP DNA aptamer (quencher-CACCTGGGGGAGTATTGCGGAGGAAGG + anchor), 100 nM annealed; ATP concentration: 500 uM
Procedure, shortened: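 Cy3-labelled switching-strand clusters on a modified Illumina MiSeq flow-cell were annealed to 100 nM quencher-labelled ATP aptamer and imaged first in selection buffer, then after 15 min with 500 uM ATP at 22 °C. NaOH stripping and re-annealing separated each of five buffer/ATP cycles, and clusters outside 100-1000 RFU were excluded. The fluorescence ratio sums target-cycle Cy3 intensity over buffer-cycle Cy3 intensity per cluster and averages it per switch-domain sequence.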
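Further: ATP exposure 15 min at 22 °C before imaging.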

Sequence	switch fluorescence ratio
CGGGTTCCAC	1.01 ± 0.05
CGGGTTTAAA	1 ± 0.011
CGGGTTTGTC	1 ± 0.035
CGGGTTTTAC	1.01 ± 0.039
CGGGTTTTCG	0.988 ± 0.018
CGGTAAAGCG	0.9808 ± 0.0071
CGGTAATGTT	1 ± 0.027
CGGTACACGT	1.0186 ± 0.00031
CGGTACCCAT	1.01 ± 0.018
CGGTACCGTG	0.9844 ± 0.007
CGGTACGACG	0.94 ± 0.019
CGGTACGAGC	0.992 ± 0.046
CGGTACGGAT	0.989 ± 0.043
CGGTACTTGG	0.967 ± 0.05
CGGTAGACCT	1.105 ± 0.0037
CGGTAGGACA	1 ± 0.011
CGGTAGGGTT	0.978 ± 0.022
CGGTAGTTCG	0.955 ± 0.038
CGGTATAACG	0.997 ± 0.043
CGGTATACTG	1.04 ± 0.049
CGGTATGGCT	0.9689 ± 0.0062
CGGTCAGTTT	1.025 ± 0.0089
CGGTCATATT	0.9892 ± 0.0037
CGGTCCCGGC	1.03 ± 0.05
CGGTCCGTTT	1.02 ± 0.042

Sequence	switch fluorescence ratio
CGGTCCTATG	0.993 ± 0.029
CGGTCGGTTG	1.06 ± 0.022
CGGTCTACCT	1.02 ± 0.014
CGGTCTATAG	1.02 ± 0.053
CGGTCTGCGA	1.05 ± 0.013
CGGTGACTGA	0.9569 ± 0.008
CGGTGAGGGA	0.978 ± 0.044
CGGTGAGGGT	0.9863 ± 0.0071
CGGTGAGTGG	1.01 ± 0.02
CGGTGGCGGG	1.004 ± 0.0095
CGGTGGGACG	1.02 ± 0.022
CGGTGGGGAC	1.04 ± 0.13
CGGTGGGGCA	1.1 ± 0.13
CGGTGGGTGT	0.931 ± 0.011
CGGTGGTCCA	0.997 ± 0.017
CGGTGGTCGC	0.984 ± 0.019
CGGTGGTGGG	1.031 ± 0.0066
CGGTGTTAAC	0.957 ± 0.036
CGGTGTTGTC	0.964 ± 0.0037
CGGTTAAAGC	0.94 ± 0.014
CGGTTAACGT	1.01 ± 0.033
CGGTTAATTT	1.01 ± 0.027
CGGTTACCGT	0.986 ± 0.013
CGGTTACGAC	1.02 ± 0.021
CGGTTACGAG	0.9952 ± 0.0029

Sequence	switch fluorescence ratio
CGGTTAGGAA	1.01 ± 0.025
CGGTTAGGGA	0.965 ± 0.03
CGGTTATCGG	1.002 ± 0.0031
CGGTTCGGCG	0.987 ± 0.0099
CGGTTGCCCG	0.979 ± 0.12
CGGTTGGCCT	0.9978 ± 0.0069
CGGTTGGGTA	0.977 ± 0.014
CGGTTGGGTG	0.97348 ± 6.3e-05
CGGTTGTAGG	0.999 ± 0.015
CGGTTGTCGG	0.997 ± 0.013
CGGTTGTGAG	1.01 ± 0.031
CGGTTGTGTA	1.03 ± 0.023
CGGTTTACGG	0.986 ± 0.011
CGGTTTATGA	0.968 ± 0.016
CGGTTTGAGT	0.983 ± 0.019
CGGTTTGGCA	0.992 ± 0.014
CGGTTTGTGT	0.998 ± 0.029
CGGTTTTGGC	0.998 ± 0.019
CGGTTTTTTT	0.978 ± 0.016
CGTAAAACTA	1.03 ± 0.042
CGTAAAAGAC	1.23 ± 0.19
CGTAAAATAC	2.85 ± 0.056
CGTAACCTTG	1.023 ± 0.0071
CGTAACGTGG	0.9938 ± 0.0078
CGTAATAGAT	1.02 ± 0.026

Sequence	switch fluorescence ratio
CGTAATGGGG	1.022 ± 0.01
CGTACAGATA	0.994 ± 0.027
CGTACAGTGG	1.02 ± 0.046
CGTACGGACG	0.984 ± 0.021
CGTACGGCGG	1.015 ± 0.0038
CGTACTCGTA	1.01 ± 0.019
CGTAGAAAAG	0.998 ± 0.025
CGTAGACGAG	1.03 ± 0.016
CGTAGACTCG	1.02 ± 0.05
CGTAGAGGGC	0.986 ± 0.034
CGTAGATAGC	1.07 ± 0.02
CGTAGATTTT	1 ± 0.046
CGTAGCGTCC	1.13 ± 0.019
CGTAGCTTTG	1.086 ± 0.0028
CGTAGGAGG	0.9784 ± 0.0044
CGTAGGTGCA	1.05 ± 0.022
CGTAGGTTTT	1 ± 0.067
CGTAGTGTAG	1.02 ± 0.052
CGTAGTTGG	0.988 ± 0.049
CGTATAAATC	1.01 ± 0.043
CGTATACTGA	1.01 ± 0.055
CGTATATGGC	1.1 ± 0.14
CGTATCTCTA	0.989 ± 0.01
CGTATGCCGG	0.9999 ± 0.0091
CGTATGGCCA	1.0198 ± 0.00072

Sequence	switch fluorescence ratio
CGTATTGAGA	0.968 ± 0.057
CGTATTGCGT	1.01 ± 0.025
CGTATTTATT	1.01 ± 0.021
CGTATTTGAG	1 ± 0.037
CGTATTTGGG	0.999 ± 0.034
CGTATTTGTA	1.01 ± 0.028
CGTATTTTTT	1.01 ± 0.032
CGTCACGGGA	1.05 ± 0.036
CGTCATATGC	1.29 ± 0.073
CGTCATGCTC	1.19 ± 0.036
CGTCCACAGG	2.96 ± 0.092
CGTCGACCGG	1 ± 0.022
CGTCGAGGGA	1.1 ± 0.12
CGTCGCAGTG	1.03 ± 0.052
CGTCGTATAA	1.02 ± 0.021
CGTCGTGATA	1.2 ± 0.014
CGTCTAATAG	1.18 ± 0.03
CGTCTGAATG	0.9983 ± 0.0024
CGTCTGGGCG	0.957 ± 0.097
CGTCTGGTGC	1.03 ± 0.029
CGTCTGTCGG	1.03 ± 0.019
CGTCTTTTAT	0.9935 ± 0.0043
CGTCTTTTGG	1.02 ± 0.025
CGTGAAAGCG	0.9683 ± 0.005
CGTGAAGGCG	0.952 ± 0.024

Sequence	switch fluorescence ratio
CGTGAAGGGT	0.992 ± 0.013
CGTGACGGTA	1.042 ± 0.0014
CGTGAGAGTG	0.9781 ± 0.0021
CGTGATGATT	0.9809 ± 0.0078
CGTGATGGGG	1.04 ± 0.071
CGTGATTTGG	1.006 ± 0.0065
CGTGCAAATT	0.985 ± 0.026
CGTGCACAAA	0.9815 ± 0.0059
CGTGCCCGTG	1 ± 0.017
CGTGCGGGTG	1.03 ± 0.006
CGTGCGTGTA	1.02 ± 0.053
CGTGCTCTAC	1.5 ± 0.068
CGTGCTTTTC	1.15 ± 0.22
CGTGGAACGA	1.01 ± 0.058
CGTGGGAATT	0.977 ± 0.019
CGTGGGAGAG	0.983 ± 0.021
CGTGGGAGGC	1.04 ± 0.077
CGTGGGGAGG	1.05 ± 0.017
CGTGGGGCAC	1.01 ± 0.024
CGTGGGGGT	0.996 ± 0.035
CGTGGGGTTT	0.989 ± 0.022
CGTGGGTGGT	1.0181 ± 0.00048
CGTGGTAAGG	0.989 ± 0.026
CGTGGTGGG	0.968 ± 0.029
CGTGGTGGGA	0.9737 ± 0.0088

Sequence	switch fluorescence ratio
CGTGGTTGTC	0.9871 ± 0.0066
CGTGTAAGGG	0.974 ± 0.04
CGTGTAATGT	0.985 ± 0.048
CGTGTAATTT	0.993 ± 0.016
CGTGTACTTA	1.03 ± 0.01
CGTGTAGGAG	0.99262 ± 0.00056
CGTGTAGGTT	1.02 ± 0.021
CGTGTAGTTT	1.01 ± 0.036
CGTGTATATA	1.018 ± 0.0041
CGTGTATGG	1.016 ± 0.0031
CGTGTATGTG	0.969 ± 0.043
CGTGTATTCT	0.968 ± 0.034
CGTGTCTTGA	1.027 ± 0.0037
CGTGTGCCGA	1.01 ± 0.057
CGTGTGGGGT	1.01 ± 0.027
CGTGTGGTGG	0.944 ± 0.032
CGTGTGGTGT	1.03 ± 0.04
CGTGTTCTGG	0.994 ± 0.031
CGTGTTGGTA	0.987 ± 0.013
CGTGTTGTAC	1.13 ± 0.024
CGTGTTTGCC	1 ± 0.02
CGTGTTTTAG	1 ± 0.033
CGTTAATCTT	0.995 ± 0.049
CGTTAATTAC	1.38 ± 0.036
CGTTAGAATC	1.014 ± 0.0082

Sequence	switch fluorescence ratio
CGTTAGATGG	1.01 ± 0.011
CGTTAGTGCG	1 ± 0.025
CGTTCAACTC	1.04 ± 0.016
CGTTCTGTTT	1 ± 0.029
CGTTGAGGAA	0.9853 ± 0.0038
CGTTGCCGTT	1.06 ± 0.1
CGTTGCGCTG	1.01 ± 0.0069
CGTTGGCACG	0.997 ± 0.04
CGTTGGGTCC	0.987 ± 0.029
CGTTGGGTTT	1.03 ± 0.054
CGTTGGTCAG	1.02 ± 0.032
CGTTGGTGGT	0.99 ± 0.031
CGTTGTACTT	1.01 ± 0.052
CGTTGTAGGA	0.999 ± 0.016
CGTTGTAGGG	0.989 ± 0.01
CGTTGTCATC	1.01 ± 0.06
CGTTGTCATT	0.972 ± 0.036
CGTTGTCTAG	0.9713 ± 0.005
CGTTGTTAGC	0.992 ± 0.022
CGTTGTTGTT	0.989 ± 0.045
CGTTTAAGTA	0.973 ± 0.019
CGTTTACTTA	1.02 ± 0.02
CGTTTAGGTT	1 ± 0.017
CGTTTCAGCG	0.952 ± 0.051
CGTTTCGTGC	0.9919 ± 0.003
